Patent publication US20200164085A1 (Merck Sharp & Dohme, published 2020)

Molecular target: T1, human CD74 (human, UniProt P04233 1-296)
T1 sequence (looked up): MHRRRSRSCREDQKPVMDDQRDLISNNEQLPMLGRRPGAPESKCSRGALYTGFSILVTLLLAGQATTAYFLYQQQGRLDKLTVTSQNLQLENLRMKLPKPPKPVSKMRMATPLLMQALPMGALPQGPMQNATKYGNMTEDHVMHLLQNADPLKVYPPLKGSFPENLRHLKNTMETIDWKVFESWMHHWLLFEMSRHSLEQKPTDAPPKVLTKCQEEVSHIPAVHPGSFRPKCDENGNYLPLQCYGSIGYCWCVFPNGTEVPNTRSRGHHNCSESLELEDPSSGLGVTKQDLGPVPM
Assay: cell-based or functional assay

Row | EC50, GILZ mRNA, HUT-78 cells [µg/mL] | EC50, GILZ mRNA, SUDHL-6 cells [µg/mL] | Emax, GILZ mRNA, HUT-78 cells | Emax, GILZ mRNA, SUDHL-6 cells | Binder
1 | 1.32 | 0.4 | 4.13 | 3.4 | ADC 12-5 (anti-hCD74 (LL1) conjugated to Linker 2-7) (antibody, human IgG1, kappa, V domains shown, position 121 is para-azido phenylalanine (pAzF), conjugated to dexamethasone drug-linker 2-7) VH: QVQLQQSGSELKKPGASVKVSCKASGYTFTNYGVNWIKQAPGQGLQWMGWINPNTGEPTFDDDFKGRFAFSLDTSVSTAYLQISSLKADDTAVYFCSRSRGKNEAWFAYWGQGSLVTVSS VL: DIQLTQSPLSLPVTLGQPASISCRSSQSLVHRNGNTYLHWFQQRPGQSPRLLIYTVSNRFSGVPDRFSGSGSGTDFTLKISRVEAEDVGVYFCSQSSHVPPTFGAGTRLEIKR
2 | 0.2 | 0.21 | 6.47 | 5.89 | ADC 12-10 (anti-hCD74 (LL1) conjugated to Linker 9-4) (antibody, human IgG1, kappa, V domains shown, position 121 is para-azido phenylalanine (pAzF), conjugated to budesonide drug-linker 9-4) VH: QVQLQQSGSELKKPGASVKVSCKASGYTFTNYGVNWIKQAPGQGLQWMGWINPNTGEPTFDDDFKGRFAFSLDTSVSTAYLQISSLKADDTAVYFCSRSRGKNEAWFAYWGQGSLVTVSS VL: DIQLTQSPLSLPVTLGQPASISCRSSQSLVHRNGNTYLHWFQQRPGQSPRLLIYTVSNRFSGVPDRFSGSGSGTDFTLKISRVEAEDVGVYFCSQSSHVPPTFGAGTRLEIKR
3 | 1.87 | 0.47 | 4.61 | 3.33 | ADC 12-6 (anti-hCD74 (LL1) conjugated to Linker 3-4) (antibody, human IgG1, kappa, V domains shown, position 121 is para-azido phenylalanine (pAzF), conjugated to dexamethasone drug-linker 3-4) VH: QVQLQQSGSELKKPGASVKVSCKASGYTFTNYGVNWIKQAPGQGLQWMGWINPNTGEPTFDDDFKGRFAFSLDTSVSTAYLQISSLKADDTAVYFCSRSRGKNEAWFAYWGQGSLVTVSS VL: DIQLTQSPLSLPVTLGQPASISCRSSQSLVHRNGNTYLHWFQQRPGQSPRLLIYTVSNRFSGVPDRFSGSGSGTDFTLKISRVEAEDVGVYFCSQSSHVPPTFGAGTRLEIKR
4 | 1.08 | 0.99 | 3.95 | 3.44 | ADC 12-4 (anti-hCD74 (LL1) conjugated to Linker 1-4) (antibody, human IgG1, kappa, V domains shown, position 121 is para-azido phenylalanine (pAzF), conjugated to dexamethasone drug-linker 1-4) VH: QVQLQQSGSELKKPGASVKVSCKASGYTFTNYGVNWIKQAPGQGLQWMGWINPNTGEPTFDDDFKGRFAFSLDTSVSTAYLQISSLKADDTAVYFCSRSRGKNEAWFAYWGQGSLVTVSS VL: DIQLTQSPLSLPVTLGQPASISCRSSQSLVHRNGNTYLHWFQQRPGQSPRLLIYTVSNRFSGVPDRFSGSGSGTDFTLKISRVEAEDVGVYFCSQSSHVPPTFGAGTRLEIKR
5 | > 30 | 14.3 | 1.93 | 1.52 | ADC 12-7 (anti-hCD74 (LL1) conjugated to Linker 4-3) (antibody, human IgG1, kappa, V domains shown, position 121 is para-azido phenylalanine (pAzF), conjugated to dexamethasone drug-linker 4-3) VH: QVQLQQSGSELKKPGASVKVSCKASGYTFTNYGVNWIKQAPGQGLQWMGWINPNTGEPTFDDDFKGRFAFSLDTSVSTAYLQISSLKADDTAVYFCSRSRGKNEAWFAYWGQGSLVTVSS VL: DIQLTQSPLSLPVTLGQPASISCRSSQSLVHRNGNTYLHWFQQRPGQSPRLLIYTVSNRFSGVPDRFSGSGSGTDFTLKISRVEAEDVGVYFCSQSSHVPPTFGAGTRLEIKR
6 | > 30 | > 30 | 2.55 | 6.48 | ADC 12-9 (anti-hCD74 (LL1) conjugated to Linker 6-2) (antibody, human IgG1, kappa, V domains shown, position 121 is para-azido phenylalanine (pAzF), conjugated to dexamethasone drug-linker 6-2) VH: QVQLQQSGSELKKPGASVKVSCKASGYTFTNYGVNWIKQAPGQGLQWMGWINPNTGEPTFDDDFKGRFAFSLDTSVSTAYLQISSLKADDTAVYFCSRSRGKNEAWFAYWGQGSLVTVSS VL: DIQLTQSPLSLPVTLGQPASISCRSSQSLVHRNGNTYLHWFQQRPGQSPRLLIYTVSNRFSGVPDRFSGSGSGTDFTLKISRVEAEDVGVYFCSQSSHVPPTFGAGTRLEIKR
